Laboratory results: the supplement of paper PMC5998384

Test system: HeLa Kyoto
Assay: melting temperature (median over replicates), in situ; higher = more thermally stable
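Further: HeLa Kyoto cells synchronized by double thymidine or nocodazole block, proteins quantified by TMT10plex mass spectrometry, three independent biological replicates.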

| Substance | melting temperature (cell cycle stage: mitosis) | melting temperature (cell cycle stage: G1/S) |
| --- | --- | --- |
| FLNC | 55 °C | – |
| MAEVPPGPSSLLPPPAPPAPAAVEPRCPFPAGAALACCSEDEEDDEEHEGGGSRSPAGGESATVAAKGHPCLRCPQPPQEQQQLNGLISPELRHLRAAASLKSKVLSVAEVAATTATPDGGPRATATKGAGVHSGERPPHSLSSNARTAVPSPVEAAAASDPAAARNGLAEGTEQEEEEEDEQVRLLSSSLTADCSLRSPSGREVEPGEDRTIRYVRYESELQMPDIMRLITKDLSEPYSIYTYRYFIHNWPQLCFLAMVGEECVGAIVCKLDMHKKMFRRGYIAMLAVDSKYRRNGIGTNLVKKAIYAMVEGDCDEVVLETEITNKSALKLYENLGFVRDKRLFRYYLNGVDALRLKLWLR [NAA30] | – | 51.9 °C |
| MAGSDTAPFLSQADDPDDGPVPGTPGLPGSTGNPKSEEPEVPDQEGLQRITGLSPGRSALIVAVLCYINLLNYMDRFTVAGVLPDIEQFFNIGDSSSGLIQTVFISSYMVLAPVFGYLGDRYNRKYLMCGGIAFWSLVTLGSSFIPGEHFWLLLLTRGLVGVGEASYSTIAPTLIADLFVADQRSRMLSIFYFAIPVGSGLGYIAGSKVKDMAGDWHWALRVTPGLGVVAVLLLFLVVREPPRGAVERHSDLPPLNPTSWWADLRALARNPSFVLSSLGFTAVAFVTGSLALWAPAFLLRSRVVLGETPPCLPGDSCSSSDSLIFGLITCLTGVLGVGLGVEISRRLRHSNPRADPLVCATGLLGSAPFLFLSLACARGSIVATYIFIFIGETLLSMNWAIVADILLYVVIPTRRSTAEAFQIVLSHLLGDAGSPYLIGLISDRLRRNWPPSFLSEFRALQFSLMLCAFVGALGGAAFLGTAIFIEADRRRAQLHVQGLLHEAGSTDDRIVVPQRGRSTRVPVASVLI [SPNS1] | 62 °C | – |
| MAHAHIQGGRRAKSRFVVCIMSGARSKLALFLCGCYVVALGAHTGEESVADHHEAEYYVAAVYEHPSILSLNPLALISRQEALELMNQNLDIYEQQVMTAAQKDVQIIVFPEDGIHGFNFTRTSIYPFLDFMPSPQVVRWNPCLEPHRFNDTEVLQRLSCMAIRGDMFLVANLGTKEPCHSSDPRCPKDGRYQFNTNVVFSNNGTLVDRYRKHNLYFEAAFDVPLKVDLITFDTPFAGRFGIFTCFDILFFDPAIRVLRDYKVKHVVYPTAWMNQLPLLAAIEIQKAFAVAFGINVLAANVHHPVLGMTGSGIHTPLESFWYHDMENPKSHLIIAQVAKNPVGLIGAENATGETDPSHSKFLKILSGDPYCEKDAQEVHCDEATKWNVNAPPTFHSEMMYDNFTLVPVWGKEGYLHVCSNGLCCYLLYERPTLSKELYALGVFDGLHTVHGTYYIQVCALVRCGGLGFDTCGQEITEATGIFEFHLWGNFSTSYIFPLFLTSGMTLEVPDQLGWENDHYFLRKSRLSSGLVTAALYGRLYERD [BTD] | 58 °C | – |
| MAMEGYWRFLALLGSALLVGFLSVIFALVWVLHYREGLGWDGSALEFNWHPVLMVTGFVFIQGIAIIVYRLPWTWKCSKLLMKSIHAGLNAVAAILAIISVVAVFENHNVNNIANMYSLHSWVGLIAVICYLLQLLSGFSVFLLPWAPLSLRAFLMPIHVYSGIVIFGTVIATALMGLTEKLIFSLRDPAYSTFPPEGVFVNTLGLLILVFGALIFWIVTRPQWKRPKEPNSTILHPNGGTEQGARGSMPAYSGNNMDKSDSELNSEVAARKRNLALDEAGQRSTM [CYBRD1] | 53.6 °C | – |
| MAPQRRAATKAPEGNGAAERRNRSSTKKDRAPREVQRLWQRPWLRTAGLGAGFVLTALLLWSSLGADDGVAEVLARRGEVVAGRFIEVPCSEDYDSHRRFEGCTPRKCGRGVTDVVITREEAERIRSVAEKGLSLGGSDGGASILDLHSGALSVGKHFVNLYRYFGDKIQNIFSEEDFRLYREVRQKVQLTIAEAFGISASSLHLTKPTFFSRINSTEARTAHDEYWHAHVDKVTYGSFDYTSLLYLSNYLEDFGGGRFMFMEEGANKTVEPRAGRVSFFTSGSENLHRVEKVHWGTRYAITIAFSCNPDHGIEDPAFP [OGFOD3] | 53.1 °C | – |
| MARRRRRACIALFLVLLFAFGTLMGLRTLKAPDGLPALGPGLELAPFERRPEGAPAPAARAPAAPAAPPPPPPPPRTADPGGSPGPAPAEAEPAPVQSLRVYSDLHAFYYSWYGSPRREGHYIHWDHVMVPHWDPKISASYPRGRHSPPDDLGSSFYPELGPYSSRDPEVLREHMTQLKEAAIGVLVLSWYPPGMADDNGEPSDDLVPAILDTAHQYSIQVAFHIQPYKGRDDITVHDNIKYIIDTYGSHGAFYRYKNSMGKSLPLFYIYDSYLTSPEAWAHLLTPNGPHSIRNTPYDGVFIALLVEEGHTHDILAAGFDGMYTYFASNGFSFGSSHQNWKAVKNFCDANNLMFIPSVGPGYIDTSIRPWNNHNTRNRVNGKYYETALQAALTVRPEIVSITSFNEWHEGTQIEKAIPKKTPTRLYLDYLPHQPSLYLELTRRWAEHFIKEKEQWLM [MANEAL] | 54.1 °C | – |
| MASRAGPRAAGTDGSDFQHRERVAMHYQMSVTLKYEIKKLIYVHLVIWLLLVAKMSVGHLRLLSHDQVAMPYQWEYPYLLSILPSLLGLLSFPRNNISYLVLSMISMGLFSIAPLIYGSMEMFPAAQQLYRHGKAYRFLFGFSAVSIMYLVLVLAVQVHAWQLYYSKKLLDSWFTSTQEKKHK [JAGN1] | 54.8 °C | – |
| MATETVELHKLKLAELKQECLARGLETKGIKQDLIHRLQAYLEEHAEEEANEEDVLGDETEEEETKPIELPVKEEEPPEKTVDVAAEKKVVKITSEIPQTERMQKRAERFNVPVSLESKKAARAARFGISSVPTKGLSSDNKPMVNLDKLKERAQRFGLNVSSISRKSEDDEKLKKRKERFGIVTSSAGTGTTEDTEAKKRKRAERFGIA [SARNP] | 54.3 °C | 57.9 °C |
| MDEESLESALQTYRAQLQQVELALGAGLDSSEQADLRQLQGDLKELIELTEASLVSVRKSSLLAALDEERPGRQEDAEYQAFREAITEAVEAPAAARGSGSETVPKAEAGPESAAGGQEEEEGEDEEELSGTKVSAPYYSSWGTLEYHNAMVVGTEEAEDGSAGVRVLYLYPTHKSLKPCPFFLEGKCRFKENCRFSHGQVVSLDELRPFQDPDLSSLQAGSACLAKHQDGLWHAARITDVDNGYYTVKFDSLLLREAVVEGDGILPPLRTEATESDSDSDGTGDSSYARVVGSDAVDSAQSSALCPSLAVVGSDAVDSGTCSSAFAGWEVHTRGIGSRLLTKMGYEFGKGLGRHAEGRVEPIHAVVLPRGKSLDQCVETLQKQTRVGKAGTNKPPRCRGRGARPGGRPAPRNVFDFLNEKLQGQAPGALEAGAAPAGRRSKDMYHASKSAKRALSLRLFQTEEKIERTQRDIRSIQEALARNAGRHSVASAQLQEKLAGAQRQLGQLRAQEAGLQQEQRKADTHKKMTEF [ZGPAT] | 49.3 °C | 47.5 °C |
| MDHSHHMGMSYMDSNSTMQPSHHHPTTSASHSHGGGDSSMMMMPMTFYFGFKNVELLFSGLVINTAGEMAGAFVAVFLLAMFYEGLKIARESLLRKSQVSIRYNSMPVPGPNGTILMETHKTVGQQMLSFPHLLQTVLHIIQVVISYFLMLIFMTYNGYLCIAVAAGAGTGYFLFSWKKAVVVDITEHCH [SLC31A1] | 54.9 °C | 56.5 °C |
| MEMSGLSFSEMEGCRNLLGLLDNDEIMALCDTVTNRLVQPQDRQDAVHAILAYSQSAEELLRRRKVHREVIFKYLATQGIVIPPATEKHNLIQHAKDYWQKQPQLKLKETPEPVTKTEDIHLFQQQVKEDKKAEKVDFRRLGEEFCHWFFGLLNSQNPFLGPPQDEWGPQHFWHDVKLRFYYNTSEQNVMDYHGAEIVSLRLLSLVKEEFLFLSPNLDSHGLKCASSPHGLVMVGVAGTVHRGNTCLGIFEQIFGLIRCPFVENTWKIKFINLKIMGESSLAPGTLPKPSVKFEQSDLEAFYNVITVCGTNEVRHNVKQASDSGTGDQV [C3ORF38] | 50.9 °C | 50.4 °C |
| MEPGTNSFRVEFPDFSSTILQKLNQQRQQGQLCDVSIVVQGHIFRAHKAVLAASSPYFCDQVLLKNSRRIVLPDVMNPRVFENILLSSYTGRLVMPAPEIVSYLTAASFLQMWHVVDKCTEVLEGNPTVLCQKLNHGSDHQSPSSSSYNGLVESFELGSGGHTDFPKAQELRDGENEEESTKDELSSQLTEHEYLPSNSSTEHDRLSTEMASQDGEEGASDSAEFHYTRPMYSKPSIMAHKRWIHVKPERLEQACEGMDVHATYDEHQVTESINTVQTEHTVQPSGVEEDFHIGEKKVEAEFDEQADESNYDEQVDFYGSSMEEFSGERSDGNLIGHRQEAALAAGYSENIEMVTGIKEEASHLGFSATDKLYPCQCGKSFTHKSQRDRHMSMHLGLRPYGCGVCGKKFKMKHHLVGHMKIHTGIKPYECNICAKRFMWRDSFHRHVTSCTKSYEAAKAEQNTTEAN [ZBTB43] | 55 °C | – |
